The series concerns the molecule itself. Put plainly: size exclusion chromatography and negative stain EM (self-association of trimers). In general terms: Size exclusion chromatography separates by hydrodynamic size, large species first.

B1: gB-698 (CMV gB ectodomain residues 1-698 with fusion loop, furin site and C246S mutations, C-terminal 6-His tag) (other)
chain: VSSSSTRGTSATHSHHSSHTTSAAHSRSGSVSQRVTSSQTVSHGVNETIYNTTLKYGDVVGVNTTKYPYRVCSMAQGTDLIRFERNIVCTSMKPINEDLDEGIMVVYKRNIVAHTFKVRVYQKVLTFRRSYAYHRTTYLLGSNTEYVAPPMWEIHHINSHSQCYSSYSRVIAGTVFVAYHRDSYENKTMQLMPDDYSNTHSTRYVTVKDQWHSRGSTRLYRETSNLNCMVTITTARSKYPYHFFATSTGDVVDISPFYNGTNRNASYFGENADKFFIFPNYTIVSDFGRPNSALETHRLVAFLERADSVISWDIQDEKNVTCQLTFWEASERTIRSEAEDSYHFSSAKMTATFLSKKQEVNMSDSALDCVRDEAINKLQQIFNTSYNQTYEKYGNVSVFETTGGLVVFWQGIKQKSLVELERLANRSSLNLTHNSTKSSTDGNNATHLSNMESVHNLVYAQLQFTYDTLRGYINRALAQIAEAWCVDQRRTLEVFKELSKINPSAILSAIYNKPIAARFMGDVLGLASCVTINQTSVKVLRDMNVKESPGRCYSRPVVIFNFANSSYVQYGQLGEDNEILLGNHRTEECQLPSLKIFIAGNSAYEYVDYLFKRMIDLSSISTVDSMIALDIDPLENTDFRVLELYSQKELRSSNVFDLEEIMREFNSYKQRVKYVEHHHHHH
notes: Expressed in 293GnTI- cells; The trimer pairs into a dimeric trimer of six subunits
For B1, the binding result was “binds”.

Source of the values: patent publication US20180265551A1 (GlaxoSmithKline, published 2018).
